The values below come from paper doi:10.1101/2021.05.23.445342 (bioRxiv, 2021).

Test [1] concerns the target T1, Calcineurin (human PPP3CA / PPP3R1 heterodimer) (human, UniProt Q08209 1-521; P63098 1-170).
T1 construct: Calcineurin A subunit, human PPP3CA, from pET15b CnA CnB; Calcineurin B subunit, human PPP3R1, from pET15b CnA CnB; also called Cn; PP2B; source: E. coli BL21(DE3) or BL21 Star (DE3), purified (ammonium sulphate, Ni-NTA, Resource Q, S200 SEC)
Briefly: SPR; Biacore T200, 25 °C; biotin-Cys-AKAP constructs immobilised on an SA chip, Calcineurin as analyte; 10 mM PIPES pH 6.5, 150 mM NaCl, 0.05% Tween20; apparent Kd from fit of the response at the end of association vs concentration ('steady-state'). Conditions: both partners purified.

Test [2] deals with T1, Calcineurin (human PPP3CA / PPP3R1 …). Briefly: ITC; ITC200, 25 °C; 250 µM AKAP5c or AKAP5c_(ILVF->SA) injected into 18.32 µM Calcineurin; 10 mM Tris/HCl pH 7.4, 150 mM NaCl, 5 mM DTT; 1-site model (average of two repeats) and 2-site model with fixed N = 1 (global fit). Conditions: both partners purified. In general terms: ITC needs no label: the signal is the heat of the interaction.

B1: Biotin-Cys-AKAP5c_(ILVF->SA) (domain or fragment)
chain: CVAEETKPKDTELSQESDFKENGITEEKSKSEESKRMEPIAIIITDTEISEFDVTKSKNVPKQASASAENEQVGVFANDNGFEDRTSEQYETASAETASSLVKNAAQSSAEQSANEMASDDNKINNLLQ
modifications: biotin (EZ-Link Maleimide-PEG2-Biotin) on the unique added N-terminal Cys
notes: unique Cys added immediately after the GS of the thrombin or TEV site; AKAP5 (AKAP79), human, residues 300-427; all I, L, V and F residues of the three secondary sites mutated to S or A; A GS remnant of the protease site probably precedes the Cys; also called AKAP5c_(ILVF->SA) (on the SPR surface); source: E. coli BL21(DE3) or BL21 Star (DE3), purified (heat step, Ni-NTA, Resource Q), …
As to B1, the Kd in test [1] was roughly 0.6 µM.

B2: AKAP5c_(ILVF->SA) (domain or fragment)
chain: VAEETKPKDTELSQESDFKENGITEEKSKSEESKRMEPIAIIITDTEISEFDVTKSKNVPKQASASAENEQVGVFANDNGFEDRTSEQYETASAETASSLVKNAAQSSAEQSANEMASDDNKINNLLQ
notes: AKAP5 (AKAP79), human, residues 300-427; all I, L, V and F residues of the three secondary sites mutated to S or A; PIAIIIT site present; Generated by gene synthesis (GeneArt); 15N-labelled for NMR, unlabelled for ITC; also called AKAP_(ILVF->SA); source: E. coli BL21(DE3) or BL21 Star (DE3), purified (heat step, Ni-NTA, Resource Q)
B2: in test [2], the Kd stood at 1.5 µM and the “stoichiometry N” value is 0.99 AKAP5c:Cn.
